Columns and labels:
Details in all cases: remark: other sources report otherwise
[1] = biological target: T1, human XLF (1–233) with N-terminal His6 tag (XLF410) (human), Q9H9Q4; assay: cross-linking
T1 chain: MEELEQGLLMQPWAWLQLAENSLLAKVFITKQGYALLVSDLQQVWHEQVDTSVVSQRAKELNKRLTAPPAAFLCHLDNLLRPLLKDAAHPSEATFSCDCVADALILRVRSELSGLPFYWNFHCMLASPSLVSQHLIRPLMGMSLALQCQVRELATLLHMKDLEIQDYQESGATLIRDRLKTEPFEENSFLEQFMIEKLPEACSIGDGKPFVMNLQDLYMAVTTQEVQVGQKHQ

[2] = biological target: T2, human XLF/Cernunnos (1–233), tag-free (cleaved XLF441) (human), Q9H9Q4; assay: dynamic light scattering
T2 chain: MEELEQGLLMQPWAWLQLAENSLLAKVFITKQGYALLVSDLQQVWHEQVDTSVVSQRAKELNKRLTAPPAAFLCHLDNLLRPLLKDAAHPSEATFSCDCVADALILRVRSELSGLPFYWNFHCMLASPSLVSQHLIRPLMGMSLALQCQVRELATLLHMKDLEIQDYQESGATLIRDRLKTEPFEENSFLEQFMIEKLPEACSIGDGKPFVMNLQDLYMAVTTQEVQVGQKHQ

[3] = biological target: T3, SeMet-substituted human XLF (1–233) (SeMet-XLF441, cleaved) (human), Q9H9Q4; assay: crystal structure
T3 chain: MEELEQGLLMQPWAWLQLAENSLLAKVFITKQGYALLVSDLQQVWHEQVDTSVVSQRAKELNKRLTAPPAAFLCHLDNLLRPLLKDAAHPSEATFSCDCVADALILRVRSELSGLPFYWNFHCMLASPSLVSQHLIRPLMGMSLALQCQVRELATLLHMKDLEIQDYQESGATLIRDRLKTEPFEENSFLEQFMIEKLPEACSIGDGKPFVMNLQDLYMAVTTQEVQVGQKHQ

B1: human XLF (1–233) with N-terminal His6 tag (XLF410), Q9H9Q4 1-233 (domain or fragment)
chain: MEELEQGLLMQPWAWLQLAENSLLAKVFITKQGYALLVSDLQQVWHEQVDTSVVSQRAKELNKRLTAPPAAFLCHLDNLLRPLLKDAAHPSEATFSCDCVADALILRVRSELSGLPFYWNFHCMLASPSLVSQHLIRPLMGMSLALQCQVRELATLLHMKDLEIQDYQESGATLIRDRLKTEPFEENSFLEQFMIEKLPEACSIGDGKPFVMNLQDLYMAVTTQEVQVGQKHQ
stoichiometry N [1]: 2

B2: human XLF/Cernunnos (1–233), tag-free (cleaved XLF441), Q9H9Q4 1-233 (domain or fragment)
chain: MEELEQGLLMQPWAWLQLAENSLLAKVFITKQGYALLVSDLQQVWHEQVDTSVVSQRAKELNKRLTAPPAAFLCHLDNLLRPLLKDAAHPSEATFSCDCVADALILRVRSELSGLPFYWNFHCMLASPSLVSQHLIRPLMGMSLALQCQVRELATLLHMKDLEIQDYQESGATLIRDRLKTEPFEENSFLEQFMIEKLPEACSIGDGKPFVMNLQDLYMAVTTQEVQVGQKHQ
stoichiometry N [2]: 2

B3: SeMet-substituted human XLF (1–233) (SeMet-XLF441, cleaved), Q9H9Q4 1-233 (domain or fragment)
chain: MEELEQGLLMQPWAWLQLAENSLLAKVFITKQGYALLVSDLQQVWHEQVDTSVVSQRAKELNKRLTAPPAAFLCHLDNLLRPLLKDAAHPSEATFSCDCVADALILRVRSELSGLPFYWNFHCMLASPSLVSQHLIRPLMGMSLALQCQVRELATLLHMKDLEIQDYQESGATLIRDRLKTEPFEENSFLEQFMIEKLPEACSIGDGKPFVMNLQDLYMAVTTQEVQVGQKHQ
modifications: here or on the partner: selenomethionine-substituted (SeMet in place of methionine); selenomethionine-substituted (SeMet in place of methionine)
stoichiometry N [3]: 2
